We go through two molecules from paper doi:10.1101/2022.10.25.513744.

One assay has as its target Miro1^P13V ΔTM (UniProt Q8IXI2). Description: mass photometry.
A further assay deals with Miro1^P13V-Strep (UniProt Q8IXI2). The assay is described as follows: pull-down.

Values joined by “and” are separate entries in the source; they are usually repeats but may differ in a detail not shown here. Identical values can stand only once.

UniProt Q8IXI2, sequence (Q8IXI2 whole entry P13V): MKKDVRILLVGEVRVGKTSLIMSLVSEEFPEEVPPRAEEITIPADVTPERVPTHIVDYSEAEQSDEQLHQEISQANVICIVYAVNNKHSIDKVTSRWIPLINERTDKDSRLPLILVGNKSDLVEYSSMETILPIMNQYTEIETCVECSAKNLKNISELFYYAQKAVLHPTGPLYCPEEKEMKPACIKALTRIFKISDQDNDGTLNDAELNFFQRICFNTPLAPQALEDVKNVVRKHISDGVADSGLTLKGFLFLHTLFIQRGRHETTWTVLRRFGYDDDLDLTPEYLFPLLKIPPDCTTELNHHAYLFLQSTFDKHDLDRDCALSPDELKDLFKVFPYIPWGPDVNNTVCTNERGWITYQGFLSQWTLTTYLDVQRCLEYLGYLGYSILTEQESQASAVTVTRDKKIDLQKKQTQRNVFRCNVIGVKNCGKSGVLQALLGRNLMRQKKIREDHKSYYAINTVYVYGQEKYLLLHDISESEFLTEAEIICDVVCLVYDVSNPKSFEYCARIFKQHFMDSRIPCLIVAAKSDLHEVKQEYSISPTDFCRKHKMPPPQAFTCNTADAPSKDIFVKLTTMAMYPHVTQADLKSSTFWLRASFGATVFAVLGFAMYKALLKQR

Consider “Miro1^P13V ΔTM (from UniProt Q8IXI2 1-618) (domain or fragment)”, for which, in the assay with Miro1^P13V ΔTM, the percent forming dimers came out at 3%; the stoichiometry N is 3 and 4.

B1: TRAK1^562-635 (domain or fragment)
chain: MSFSSRSYLPEKLQIVKPLEGSATLHHWQQLAQPHLGGILDPRPGVVTKGFRTLDVDLDEVYCLNDFEEDDTGD
As for B1, the reduction of the TRAK1:Miro1-Strep band intensity against Miro1^WT in the assay with Miro1^P13V-Strep came out at 30%.
